Consider seven proteins from PMC5053164.

Series [1] in a line: expression yield of multisite mutants. As to conditions: glycan lost; control: wild type.
A short description of series [2]: yield of purified secreted protein, SDS-PAGE. To be noted: glycan lost; control: wild type.

B1: DORN1 extracellular domain (atDORN1-ECD; LecRK-I.9): N124N128N204N225D (protein)
parent chain: MARWLLQILIISSLHLSSVSSQQETSFVYESFLDRQNLYLDKSAIVLPSGLLQLTNASEHQMGHAFHKKPIEFSSSGPLSFSTHFVCALVPKPGFEGGHGIVFVLSPSMDFTHAESTRYLGIFNASTNGSSSYHVLAVELDTIWNPDFKDIDHNHVGIDVNSPISVAIASASYYSDMKGSNESINLLSGNPIQVWVDYEGTLLNVSVAPLEVQKPTRPLLSHPINLTELFPNRSSLFAGFSAATGTAISDQYILWWSFSIDRGSLQRLDISKLPEVPHPRAPHKKVSTLIILLPVCLAILVLAVLAGLYFRRRRKYSEVSETWEKEFDAHRFSYRSLFKATKGFSKDEFLGKGGFGEVYRGNLPQGREIAVKRVSHNGDEGVKQFVAEVVSMRCLKHRNLVPLFGYCRRKRELLLVSEYMPNGSLDEHLFDDQKPVLSWSQRLVVVKGIASALWYLHTGADQVVLHRDVKASNIMLDAEFHGRLGDFGMARFHEHGGNAATTAAVGTVGYMAPELITMGASTGTDVYAFGVFMLEVTCGRRPVEPQLQVEKRHMIKWVCECWKKDSLLDATDPRLGGKFVAEEVEMVMKLGLLCSNIVPESRPTMEQVVLYLNKNLPLPDFSPYTLGIGTFAPVLVDASSLVVSSASWSLSGPSMSSSSPNHSPYAWQSTDQPWGQTIDTKNSLHIVAEPEKPSPAVKMVTLPAEDPQSNHSSISSQRVQPVKREKRRLHQILVAFPWINKQYFKLGLPKHIVHVSLFFFLQLARL
For B1, in series [1], the “expression_or_secretion, percent_of_wt” value is “decreases”.

B2: DORN1 extracellular domain (atDORN1-ECD; LecRK-I.9): N124D (protein)
parent chain: MARWLLQILIISSLHLSSVSSQQETSFVYESFLDRQNLYLDKSAIVLPSGLLQLTNASEHQMGHAFHKKPIEFSSSGPLSFSTHFVCALVPKPGFEGGHGIVFVLSPSMDFTHAESTRYLGIFNASTNGSSSYHVLAVELDTIWNPDFKDIDHNHVGIDVNSPISVAIASASYYSDMKGSNESINLLSGNPIQVWVDYEGTLLNVSVAPLEVQKPTRPLLSHPINLTELFPNRSSLFAGFSAATGTAISDQYILWWSFSIDRGSLQRLDISKLPEVPHPRAPHKKVSTLIILLPVCLAILVLAVLAGLYFRRRRKYSEVSETWEKEFDAHRFSYRSLFKATKGFSKDEFLGKGGFGEVYRGNLPQGREIAVKRVSHNGDEGVKQFVAEVVSMRCLKHRNLVPLFGYCRRKRELLLVSEYMPNGSLDEHLFDDQKPVLSWSQRLVVVKGIASALWYLHTGADQVVLHRDVKASNIMLDAEFHGRLGDFGMARFHEHGGNAATTAAVGTVGYMAPELITMGASTGTDVYAFGVFMLEVTCGRRPVEPQLQVEKRHMIKWVCECWKKDSLLDATDPRLGGKFVAEEVEMVMKLGLLCSNIVPESRPTMEQVVLYLNKNLPLPDFSPYTLGIGTFAPVLVDASSLVVSSASWSLSGPSMSSSSPNHSPYAWQSTDQPWGQTIDTKNSLHIVAEPEKPSPAVKMVTLPAEDPQSNHSSISSQRVQPVKREKRRLHQILVAFPWINKQYFKLGLPKHIVHVSLFFFLQLARL
For B2, the expression_or_secretion result in series [2] is “no change”.

B3: DORN1 extracellular domain (atDORN1-ECD; LecRK-I.9): N124N204D (protein)
parent chain: MARWLLQILIISSLHLSSVSSQQETSFVYESFLDRQNLYLDKSAIVLPSGLLQLTNASEHQMGHAFHKKPIEFSSSGPLSFSTHFVCALVPKPGFEGGHGIVFVLSPSMDFTHAESTRYLGIFNASTNGSSSYHVLAVELDTIWNPDFKDIDHNHVGIDVNSPISVAIASASYYSDMKGSNESINLLSGNPIQVWVDYEGTLLNVSVAPLEVQKPTRPLLSHPINLTELFPNRSSLFAGFSAATGTAISDQYILWWSFSIDRGSLQRLDISKLPEVPHPRAPHKKVSTLIILLPVCLAILVLAVLAGLYFRRRRKYSEVSETWEKEFDAHRFSYRSLFKATKGFSKDEFLGKGGFGEVYRGNLPQGREIAVKRVSHNGDEGVKQFVAEVVSMRCLKHRNLVPLFGYCRRKRELLLVSEYMPNGSLDEHLFDDQKPVLSWSQRLVVVKGIASALWYLHTGADQVVLHRDVKASNIMLDAEFHGRLGDFGMARFHEHGGNAATTAAVGTVGYMAPELITMGASTGTDVYAFGVFMLEVTCGRRPVEPQLQVEKRHMIKWVCECWKKDSLLDATDPRLGGKFVAEEVEMVMKLGLLCSNIVPESRPTMEQVVLYLNKNLPLPDFSPYTLGIGTFAPVLVDASSLVVSSASWSLSGPSMSSSSPNHSPYAWQSTDQPWGQTIDTKNSLHIVAEPEKPSPAVKMVTLPAEDPQSNHSSISSQRVQPVKREKRRLHQILVAFPWINKQYFKLGLPKHIVHVSLFFFLQLARL
Regarding B3, the “expression_or_secretion, percent_of_wt” value in series [1] is listed as “decreases”.

B4: DORN1 extracellular domain (atDORN1-ECD; LecRK-I.9): N204D (protein)
parent chain: MARWLLQILIISSLHLSSVSSQQETSFVYESFLDRQNLYLDKSAIVLPSGLLQLTNASEHQMGHAFHKKPIEFSSSGPLSFSTHFVCALVPKPGFEGGHGIVFVLSPSMDFTHAESTRYLGIFNASTNGSSSYHVLAVELDTIWNPDFKDIDHNHVGIDVNSPISVAIASASYYSDMKGSNESINLLSGNPIQVWVDYEGTLLNVSVAPLEVQKPTRPLLSHPINLTELFPNRSSLFAGFSAATGTAISDQYILWWSFSIDRGSLQRLDISKLPEVPHPRAPHKKVSTLIILLPVCLAILVLAVLAGLYFRRRRKYSEVSETWEKEFDAHRFSYRSLFKATKGFSKDEFLGKGGFGEVYRGNLPQGREIAVKRVSHNGDEGVKQFVAEVVSMRCLKHRNLVPLFGYCRRKRELLLVSEYMPNGSLDEHLFDDQKPVLSWSQRLVVVKGIASALWYLHTGADQVVLHRDVKASNIMLDAEFHGRLGDFGMARFHEHGGNAATTAAVGTVGYMAPELITMGASTGTDVYAFGVFMLEVTCGRRPVEPQLQVEKRHMIKWVCECWKKDSLLDATDPRLGGKFVAEEVEMVMKLGLLCSNIVPESRPTMEQVVLYLNKNLPLPDFSPYTLGIGTFAPVLVDASSLVVSSASWSLSGPSMSSSSPNHSPYAWQSTDQPWGQTIDTKNSLHIVAEPEKPSPAVKMVTLPAEDPQSNHSSISSQRVQPVKREKRRLHQILVAFPWINKQYFKLGLPKHIVHVSLFFFLQLARL
With B4, the expression_or_secretion entry in series [2] is “no change”.

B5: DORN1 extracellular domain (atDORN1-ECD; LecRK-I.9): N128D (protein)
parent chain: MARWLLQILIISSLHLSSVSSQQETSFVYESFLDRQNLYLDKSAIVLPSGLLQLTNASEHQMGHAFHKKPIEFSSSGPLSFSTHFVCALVPKPGFEGGHGIVFVLSPSMDFTHAESTRYLGIFNASTNGSSSYHVLAVELDTIWNPDFKDIDHNHVGIDVNSPISVAIASASYYSDMKGSNESINLLSGNPIQVWVDYEGTLLNVSVAPLEVQKPTRPLLSHPINLTELFPNRSSLFAGFSAATGTAISDQYILWWSFSIDRGSLQRLDISKLPEVPHPRAPHKKVSTLIILLPVCLAILVLAVLAGLYFRRRRKYSEVSETWEKEFDAHRFSYRSLFKATKGFSKDEFLGKGGFGEVYRGNLPQGREIAVKRVSHNGDEGVKQFVAEVVSMRCLKHRNLVPLFGYCRRKRELLLVSEYMPNGSLDEHLFDDQKPVLSWSQRLVVVKGIASALWYLHTGADQVVLHRDVKASNIMLDAEFHGRLGDFGMARFHEHGGNAATTAAVGTVGYMAPELITMGASTGTDVYAFGVFMLEVTCGRRPVEPQLQVEKRHMIKWVCECWKKDSLLDATDPRLGGKFVAEEVEMVMKLGLLCSNIVPESRPTMEQVVLYLNKNLPLPDFSPYTLGIGTFAPVLVDASSLVVSSASWSLSGPSMSSSSPNHSPYAWQSTDQPWGQTIDTKNSLHIVAEPEKPSPAVKMVTLPAEDPQSNHSSISSQRVQPVKREKRRLHQILVAFPWINKQYFKLGLPKHIVHVSLFFFLQLARL
For the protein B5, in series [2], the expression_or_secretion entry is given as “no change”.

B6: DORN1 extracellular domain (atDORN1-ECD; LecRK-I.9): N124N128D (protein)
parent chain: MARWLLQILIISSLHLSSVSSQQETSFVYESFLDRQNLYLDKSAIVLPSGLLQLTNASEHQMGHAFHKKPIEFSSSGPLSFSTHFVCALVPKPGFEGGHGIVFVLSPSMDFTHAESTRYLGIFNASTNGSSSYHVLAVELDTIWNPDFKDIDHNHVGIDVNSPISVAIASASYYSDMKGSNESINLLSGNPIQVWVDYEGTLLNVSVAPLEVQKPTRPLLSHPINLTELFPNRSSLFAGFSAATGTAISDQYILWWSFSIDRGSLQRLDISKLPEVPHPRAPHKKVSTLIILLPVCLAILVLAVLAGLYFRRRRKYSEVSETWEKEFDAHRFSYRSLFKATKGFSKDEFLGKGGFGEVYRGNLPQGREIAVKRVSHNGDEGVKQFVAEVVSMRCLKHRNLVPLFGYCRRKRELLLVSEYMPNGSLDEHLFDDQKPVLSWSQRLVVVKGIASALWYLHTGADQVVLHRDVKASNIMLDAEFHGRLGDFGMARFHEHGGNAATTAAVGTVGYMAPELITMGASTGTDVYAFGVFMLEVTCGRRPVEPQLQVEKRHMIKWVCECWKKDSLLDATDPRLGGKFVAEEVEMVMKLGLLCSNIVPESRPTMEQVVLYLNKNLPLPDFSPYTLGIGTFAPVLVDASSLVVSSASWSLSGPSMSSSSPNHSPYAWQSTDQPWGQTIDTKNSLHIVAEPEKPSPAVKMVTLPAEDPQSNHSSISSQRVQPVKREKRRLHQILVAFPWINKQYFKLGLPKHIVHVSLFFFLQLARL
For the protein B6, the “expression_or_secretion, percent_of_wt” value in series [1] is given as “decreases”.

B7: DORN1 extracellular domain (atDORN1-ECD; LecRK-I.9): N225D (protein)
parent chain: MARWLLQILIISSLHLSSVSSQQETSFVYESFLDRQNLYLDKSAIVLPSGLLQLTNASEHQMGHAFHKKPIEFSSSGPLSFSTHFVCALVPKPGFEGGHGIVFVLSPSMDFTHAESTRYLGIFNASTNGSSSYHVLAVELDTIWNPDFKDIDHNHVGIDVNSPISVAIASASYYSDMKGSNESINLLSGNPIQVWVDYEGTLLNVSVAPLEVQKPTRPLLSHPINLTELFPNRSSLFAGFSAATGTAISDQYILWWSFSIDRGSLQRLDISKLPEVPHPRAPHKKVSTLIILLPVCLAILVLAVLAGLYFRRRRKYSEVSETWEKEFDAHRFSYRSLFKATKGFSKDEFLGKGGFGEVYRGNLPQGREIAVKRVSHNGDEGVKQFVAEVVSMRCLKHRNLVPLFGYCRRKRELLLVSEYMPNGSLDEHLFDDQKPVLSWSQRLVVVKGIASALWYLHTGADQVVLHRDVKASNIMLDAEFHGRLGDFGMARFHEHGGNAATTAAVGTVGYMAPELITMGASTGTDVYAFGVFMLEVTCGRRPVEPQLQVEKRHMIKWVCECWKKDSLLDATDPRLGGKFVAEEVEMVMKLGLLCSNIVPESRPTMEQVVLYLNKNLPLPDFSPYTLGIGTFAPVLVDASSLVVSSASWSLSGPSMSSSSPNHSPYAWQSTDQPWGQTIDTKNSLHIVAEPEKPSPAVKMVTLPAEDPQSNHSSISSQRVQPVKREKRRLHQILVAFPWINKQYFKLGLPKHIVHVSLFFFLQLARL
Turning to B7, the expression_or_secretion result in series [2] is “no change”.
